Experiment: soluble on expression in E. coli; label from the status in PepcDB or PDB records

Soluble on expression in E. coli, not soluble:
MGSDKIHHHHHHMKADRLLEIVALLQNHEKLTTHQLVDHLHVSSRTILRDMDTLSALGIPIVSERGRAGGWKLMDHFRSQLSGMSMTELKALFILPSDKVLKDLGIPTKGRDIRLNMLSSLQGNRKHAVRPYLEKVYIDTGTWKPSKERMEEFNVVQQAVFEEKKLYIVYENAKGEQRERLISPLGLVAKGSAWYVVATVETGDIRNFKLSRIKDSKLVREPIVKPETFSLATYWNESKEQFVQTLPSYEATVLAHDSIIHRLTFTGKFVENIQVGHRDDEWVTVNLCFHDEQEITEYVLGFGGRMKLVTPKHLIGRIVQQASAVIQQYASDKEPTNETKEGL
MGSDKIHHHHHHMKCLLCGQTMKTVLTFSSLLLLRNDDSCLCSDCDSTFERIGEENCPNCMKTELSTKCQDCQLWCKEGVEVSHRAIFTYNQAMKDFFSRYKFDGDFLLRKVFASFLSEELKKYKEYQFVVIPLSPDRYANRGFNQVEGLVEAAGFEYLDLLEKREERASSSKNRSERLGTELPFFIKSGVTIPKKILLIDDIYTTGATINRVKKLLEEAGAKDVKTFSLVR
MGSDKIHHHHHHMKDDVSAPSRYRPSIFAVPFQRHGDGTAVELLSPSEQDALIAISRLVTVRRHTVLYPEGGDARFAYNIVSGVAETYQLLPNGDKRITAFLFPRDLMGLSENGAYVATAQSLTPLVAYRIPVEALAEILERDPRLDIGLLCKLCHELRRSQHHTITVSKNEAPARLASFLVWIQHAYPEEGRAEGEVMLPMSRHDIADYLGLSVESVSRGLHVLEAQDAVRRKGPRLVTVLDPAKLRRLAGQD
MGSDKIHHHHHHMKEQKLSNRFCPEGMTVEEWQVGLRREFAEQNPFDVEHLDENRIWGDYLVANGRNRYRVAFRGVRSERNYCSCLDFRTNGLGTCKHIEAVTLFLQDQVPGYPWGEFDYTPEYSSIYVSYKGGRSIKMRVGREETARFEALRARFFDESGTLPPENYSFLPQICDEAKDIAASFRCYEDVFDLTQEHCRRMEWQDYLRETNPDKRVDNEYTADMPEEMRRHVYDLAYEGHGVMVGLPSDVIVREVVALADVYLRDQPGATGYVIINDPQRFILWRNAFANPALRRLPIEVMHASAFVKKVANNVPPCTFMFVEQAARLKEWRDPVSVAIKRMQIDHLYMNLETIEDLTPVQFSSVVQHIDPFILGPFYRFIRDYRPIFPLRNDGSNLPDDVRDFMFLYTSDSIREMNEMLPPIRTAEILLHGTDAEEEIDKLLRHLNRVLSNDTLREVFLKRISMIVGAS
MGSDKIHHHHHHMKEQYKIIVLSDELSKEKIQNTLDKNKCKTIVHLVDVSAIVQIENSFQYIVIWRMDAEKITNELINRGVQSTKIINLTKYMYEWRNKLISIYQINPDLMSLYISMKKAKGDPTYELFATGLSYPHCGISTELLSKKSIKLTLPSQDLYYDYLIASQLLSNNHSFQYCLIGIAYFSFYFDMSLSSESYRIHKVYYPLFQDGHHTVVHSHLPTDGFSHLDTPKPLFSIFNMHFEYILLDELKNESLILPWIHAEWNTTPPHIPFEEHGKIRAASHAKLSYPHTLVENKTIFKKYLELLLKHDIKPLIVVFPVTSHYFNCSSKKLKEDFYNVIKDFQSQYSFQIIDLFDSPLFCDDDFYDSDHMNKKGANKMSVLLNMFIQERKV
MGSDKIHHHHHHMKFLFIVQGEGRGHLTQAITLEEMLLRNGHEVVEVLVGESSSRILPGFFNRNIQAPVKRFISPNFLPAADNKRANLKKSFTYNLLRIPEYFRSMCYINQRIKETGAEVVINFYELLTGLTYALFRPSVPYVCVGHQYLFLHQNFEFPDKNSFELRMLRFFTKMTAVRSSKKLALSFNDMEPDRGQQVVVVPPLIRQEVTAIQPEEGNYIHGYMVNSGFADSVEEFHTIYPEVPLRFFWDKADAEEVTRIDETLSFYQIDDVKFLNGMAGCRAYATTAGFESICEAMYLGKPVLMVPAHIEQDCNAHDAMRAGAGIISDSFDLKPLLRFAGTYSPNRTFVRWVRSGERRIILELEKLAASQSAITSIPTFTNYLPI

Reference: the DeepSol protein solubility set
